Positions count from the first letter of the chain named. Numbered stars: 1 amine (or outer) side, 2 acyl side, 3 side chain; on linkers, the order of the positions; unused ones are H or OH. Square brackets hold non-standard residues; d marks the D form. Side chains are listed from the residue outwards. Ends that are not written are not given here. * marks the point of attachment. C20 diacid = O=C(O)CCCCCCCCCCCCCCCCCCC(=O)*; αMePhe(2-F) = C[C@](N)(Cc1ccccc1F)C(=O)O; γGlu = O=C(O)[C@H](CCC(=O)[*:2])N[*:1]; αMeL = CC(C)C[C@](C)(N)C(=O)O; AEEA = NCCOCCOCC(=O)O; Aib = CC(C)(N)C(=O)O

B1: Example 138 (peptide)
peptide: YXEGTXTSDYSIXLDKKAQXSFIEYLIEGGPSSGAPPPS
modifications: Aib2; αMeF6; αMeL13; K17((2-[2-(2-Amino-ethoxy)-ethoxy]-acetyl)2-(γ-Glu)-CO-(CH2)18-CO2H); Aib20; C-terminal NH2
B2: Example 145 (peptide)
peptide: B1 peptide with Y10A, S21A
modifications: Aib2; αMeF6; αMeL13; K17((2-[2-(2-Amino-ethoxy)-ethoxy]-acetyl)2-(γ-Glu)-CO-(CH2)18-CO2H); Aib20; C-terminal NH2
B3: Example 116 (peptide)
peptide: B1 peptide with K16E, S21E
modifications: Aib2; αMeF6; αMeL13; K17((2-[2-(2-Amino-ethoxy)-ethoxy]-acetyl)2-(γ-Glu)-CO-(CH2)18-CO2H); Aib20; C-terminal NH2
B4: Example 118 (peptide)
peptide: B1 peptide with K16E, S21E
modifications: Aib2; αMeF(2F)6; αMeL13; K17((2-[2-(2-Amino-ethoxy)-ethoxy]-acetyl)2-(γ-Glu)-CO-(CH2)18-CO2H); Aib20; C-terminal NH2
B5: Example 150 (peptide)
peptide: B1 peptide with K16E, S21E, E24S
modifications: Aib2; αMeF(2F)6; αMeL13; K17((2-[2-(2-Amino-ethoxy)-ethoxy]-acetyl)2-(γ-Glu)-CO-(CH2)18-CO2H); Aib20; C-terminal NH2
B6: Example 154 (peptide)
peptide: Y[Aib]EGT[αMePhe(2-F)]TSDHSI[αMeL]LDEK([AEEA-AEEA-γGlu-C20 diacid])AQ[Aib]EFIEYLIEGGPSSGAPPPS-NH2
modifications: N-terminus assumed
SMILES: CC[C@H](C)[C@H](NC(=O)[C@H](CC(C)C)NC(=O)[C@H](Cc1ccc(O)cc1)NC(=O)[C@H](CCC(=O)O)NC(=O)[C@@H](NC(=O)[C@H](Cc1ccccc1)NC(=O)[C@H](CCC(=O)O)NC(=O)C(C)(C)NC(=O)[C@H](CCC(N)=O)NC(=O)[C@H](C)NC(=O)[C@H](CCCCNC(=O)COCCOCCNC(=O)COCCOCCNC(=O)CC[C@H](NC(=O)CCCCCCCCCCCCCCCCCCC(=O)O)C(=O)O)NC(=O)[C@H](CCC(=O)O)NC(=O)[C@H](CC(=O)O)NC(=O)[C@H](CC(C)C)NC(=O)[C@](C)(CC(C)C)NC(=O)[C@@H](NC(=O)[C@H](CO)NC(=O)[C@H](Cc1c[nH]cn1)NC(=O)[C@H](CC(=O)O)NC(=O)[C@H](CO)NC(=O)[C@@H](NC(=O)[C@](C)(Cc1ccccc1F)NC(=O)[C@@H](NC(=O)CNC(=O)[C@H](CCC(=O)O)NC(=O)C(C)(C)NC(=O)[C@@H](N)Cc1ccc(O)cc1)[C@@H](C)O)[C@@H](C)O)[C@@H](C)CC)[C@@H](C)CC)C(=O)N[C@@H](CCC(=O)O)C(=O)NCC(=O)NCC(=O)N1CCC[C@H]1C(=O)N[C@@H](CO)C(=O)N[C@@H](CO)C(=O)NCC(=O)N[C@@H](C)C(=O)N1CCC[C@H]1C(=O)N1CCC[C@H]1C(=O)N1CCC[C@H]1C(=O)N[C@@H](CO)C(N)=O
B7: Example 142 (peptide)
peptide: B1 peptide with S21H
modifications: Aib2; αMeF6; αMeL13; K17((2-[2-(2-Amino-ethoxy)-ethoxy]-acetyl)2-(γ-Glu)-CO-(CH2)18-CO2H); Aib20; C-terminal NH2
B8: Example 119 (peptide)
peptide: B1 peptide with Y1F, K16E, S21A
modifications: Aib2; αMeF6; αMeL13; K17((2-[2-(2-Amino-ethoxy)-ethoxy]-acetyl)2-(γ-Glu)-CO-(CH2)18-CO2H); Aib20; C-terminal NH2
B9: Example 140 (peptide)
peptide: B1 peptide with S21D
modifications: Aib2; αMeF6; αMeL13; K17((2-[2-(2-Amino-ethoxy)-ethoxy]-acetyl)2-(γ-Glu)-CO-(CH2)18-CO2H); Aib20; C-terminal NH2
B10: Example 125 (peptide)
peptide: B1 peptide with S21A
modifications: Aib2; αMeF6; αMeL13; K17((2-[2-(2-Amino-ethoxy)-ethoxy]-acetyl)2-(γ-Glu)2-CO-(CH2)18-CO2H); Aib20; C-terminal NH2
B11: Example 149 (peptide)
peptide: B1 peptide with K16E, S21E, E24V
modifications: Aib2; αMeF(2F)6; αMeL13; K17((2-[2-(2-Amino-ethoxy)-ethoxy]-acetyl)2-(γ-Glu)-CO-(CH2)18-CO2H); Aib20; C-terminal NH2
B12: Example 4 (peptide)
peptide: YXEGTXTSDXSIXLDXKAQXEFIXXLIEGGPSSGAPPPS
modifications: not fully specified; Aib2; αMeF(2F)6; 4Pal10; αMeL13; Orn16; K17((2-[2-(2-Amino-ethoxy)-ethoxy]-acetyl)2-(γ-Glu)-CO-(CH2)16-CO2H); Aib20; D-Glu24; αMeY25; C-terminal NH2
B13: Example 5 (peptide)
peptide: B12 peptide with X10V
modifications: not fully specified; Aib2; αMeF(2F)6; αMeL13; Orn16; K17((2-[2-(2-Amino-ethoxy)-ethoxy]-acetyl)2-(γ-Glu)-CO-(CH2)16-CO2H); Aib20; D-Glu24; αMeY25; C-terminal NH2

T1 sequence (P47871 26-477): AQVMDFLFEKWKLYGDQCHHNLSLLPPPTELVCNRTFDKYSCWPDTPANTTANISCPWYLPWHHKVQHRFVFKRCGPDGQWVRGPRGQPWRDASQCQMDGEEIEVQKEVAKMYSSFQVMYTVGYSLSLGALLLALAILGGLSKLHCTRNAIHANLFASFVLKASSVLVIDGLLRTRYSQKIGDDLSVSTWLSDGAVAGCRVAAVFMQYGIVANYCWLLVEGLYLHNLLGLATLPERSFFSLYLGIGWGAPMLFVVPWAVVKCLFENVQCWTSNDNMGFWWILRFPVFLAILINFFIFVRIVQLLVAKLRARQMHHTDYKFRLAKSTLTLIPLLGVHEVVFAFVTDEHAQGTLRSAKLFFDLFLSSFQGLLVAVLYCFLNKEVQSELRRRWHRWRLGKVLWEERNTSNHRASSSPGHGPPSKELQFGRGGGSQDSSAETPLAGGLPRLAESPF

One test concerns the target T1, human glucagon receptor (human, UniProt P47871 26-477).
T1 construct: whole, on cells; Used as crude membranes of stably transfected HEK293 cells; also called hGcgR; hGLcgR
The test can be described thus: SPA, [125I]-Gcg displacement, hGcgR membranes.
In turn, B1 came in with an inhibition constant Ki of 61.2 nM.
The molecule B2 displayed a Ki of 158 nM.
B3 had a Ki of 137 nM.
The same measure, in the same setting: as for B4, the figure is 53 nM; as for B5, 63.2 nM.
On the same count and under the same terms, as for B6, the figure is 762 nM; as for B7, 53.1 nM.
For B8, the affinity corresponds to a Ki of 30.6 nM.
Turning to B9, the Ki came to 175 nM.
For the molecule B10, the Ki stood at 54.4 nM.
Take B11: the inhibition constant Ki came out at 127 nM.
Still for that read-out and setting: as for B12, the figure is 686 nM; as for B13, 519 nM.

The next test has as its target T2, human GIP receptor (human, UniProt P48546 22-466).
T2 construct: whole, on cells; Used as crude membranes of stably transfected CHO cells; also called hGIPR
T2 sequence (looked up): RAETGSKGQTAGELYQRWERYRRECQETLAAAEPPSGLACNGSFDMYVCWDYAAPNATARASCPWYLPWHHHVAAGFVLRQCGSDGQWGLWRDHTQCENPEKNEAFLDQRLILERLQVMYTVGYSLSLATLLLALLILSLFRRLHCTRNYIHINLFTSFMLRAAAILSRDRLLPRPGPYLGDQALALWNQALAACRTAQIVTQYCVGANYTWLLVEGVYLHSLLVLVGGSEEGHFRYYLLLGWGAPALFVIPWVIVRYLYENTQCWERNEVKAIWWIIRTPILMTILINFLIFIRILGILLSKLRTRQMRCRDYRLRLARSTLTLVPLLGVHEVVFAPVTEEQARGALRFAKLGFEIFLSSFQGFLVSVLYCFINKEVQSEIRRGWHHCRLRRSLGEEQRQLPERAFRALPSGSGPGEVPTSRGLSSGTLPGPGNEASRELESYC
The test can be described thus: SPA, [125I]-GIP displacement, hGIPR membranes.
B1 showed a Ki of 0.0295 nM.
On to B2, for which the inhibitory constant (Ki) was determined as 0.0652 nM.
Same read-out and setting: as for B3, the figure is 0.0597 nM.
On the same count and under the same terms, then B4, with 0.0859 nM.
Regarding B5, the affinity corresponds to a Ki of 0.0649 nM.
Still for that read-out and setting: then B6, with 0.061 nM.
Same read-out and setting: then B7, with 0.0275 nM.
Take B8: affinity was put at a Ki of 0.0925 nM.
The molecule B9 had an inhibition constant (Ki) of 0.0474 nM.
B10 displayed an inhibitory constant (Ki) of 0.0624 nM.
Turning to B11, the Ki was 0.0708 nM.
Still for that read-out and setting: as for B12, the figure is 0.0528 nM.
B13 showed a Ki of 0.0611 nM.

In the next test the target is T3, human GLP-1 receptor (human, UniProt P43220 24-463).
T3 construct: whole, on cells; Used as crude membranes of stably transfected HEK293 cells; also called hGLP1R; hGLP-1R
The test can be described thus: SPA, [125I]-GLP-1 displacement, hGLP-1R membranes.
As to B1, the affinity, expressed as Ki, was 0.926 nM.
On the same count and under the same terms, then B2, with 2.22 nM; and B3, with 6.8 nM.
On the same count and under the same terms, as for B4, the figure is 6.1 nM.
B5: the affinity corresponds to a Ki of 30.5 nM.
B6: the Ki is 5.64 nM.
The same measure, in the same setting: then B7, with 1.06 nM; and B8, with 9.87 nM; and B9, with 1.46 nM.
Molecule B10 registered a Ki of 3.19 nM.
In turn, B11 gave an inhibition constant Ki of 26.1 nM.
On the same count and under the same terms, as for B12, the figure is 1.63 nM; as for B13, 0.902 nM.

The term Ki denotes a measure of affinity in units of concentration, obtained from inhibition or displacement. High values mean a looser hold on the target, low ones a stronger hold on the target.

The record behind these values is patent publication US20200024322A1 (Eli Lilly, published 2020).
